Experimental data: EP4669671A1 (dated 2025)
Each block holds one binder with its values, some of them ahead of it.

Columns and labels:
[1] = target: T1, human IL2RA expressed on CHO-S cells (CHO-S-hIL2RA cells) (human, UniProt P01589 22-272); assay: flow cytometry on CHO-S-hIL2RA cells
T1 sequence: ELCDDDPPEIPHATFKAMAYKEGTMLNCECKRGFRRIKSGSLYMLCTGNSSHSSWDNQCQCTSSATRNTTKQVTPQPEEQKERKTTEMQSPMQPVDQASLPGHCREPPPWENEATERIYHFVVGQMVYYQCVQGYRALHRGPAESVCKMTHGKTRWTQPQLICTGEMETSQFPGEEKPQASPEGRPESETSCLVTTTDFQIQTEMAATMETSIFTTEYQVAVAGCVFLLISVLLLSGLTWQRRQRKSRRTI

[2] = target: T2, monkey (Macaca fascicularis) IL2RA expressed on CHO-S cells (CHO-S-fasIL2RA cells) (monkey (Macaca fascicularis), UniProt Q5MNY4 22-272); assay: flow cytometry on CHO-S-fasIL2RA cells
T2 construct: also called monkey IL2RA
T2 chain: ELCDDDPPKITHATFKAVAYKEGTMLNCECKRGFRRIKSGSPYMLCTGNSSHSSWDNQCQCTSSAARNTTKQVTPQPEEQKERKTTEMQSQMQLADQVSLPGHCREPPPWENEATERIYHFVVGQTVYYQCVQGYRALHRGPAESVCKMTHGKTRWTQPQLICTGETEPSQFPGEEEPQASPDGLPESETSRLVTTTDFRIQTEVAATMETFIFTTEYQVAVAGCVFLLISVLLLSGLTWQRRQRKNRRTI

[3] = target: T3, His-tagged human IL2RA protein (ACROBiosystems Inc., Cat#: ILA-H52H9) (human, UniProt P01589 22-213, limits assumed); assay: SPR (Biacore 8K), antibody captured on Protein A chip, His-tagged IL2RA as analyte
T3 construct: Bought protein; also called hIL2RA-his; not shown: His tag
T3 sequence: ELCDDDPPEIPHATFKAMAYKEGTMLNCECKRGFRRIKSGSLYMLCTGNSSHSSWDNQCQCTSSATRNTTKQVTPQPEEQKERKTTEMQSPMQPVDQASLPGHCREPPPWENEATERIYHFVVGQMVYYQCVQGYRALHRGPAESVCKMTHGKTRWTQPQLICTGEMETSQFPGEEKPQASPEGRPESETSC

binding result [1]: binds
binding result [2]: binds
binding result [3]: binds
B1: anti-IL2RA antibody 5D9 (antibody, V domains shown)
VH: EVQLVESGGGLVQPGGSLRLSCAASGFTVSSNYMSWVRQTPGKGLELVSFIYSGGITSYADSVRGRFTISRDNSKNTLYLQMNSLRAEDTAVYYCARDDYSNYFDYWGQGTLVTVSS
VL: DIQMTQSPSSVSASVGDRVTITCRASQGISNWLAWYQQKPGKAPKLLIFAASSLQSGVPSRFSGSGSGTDFTLTISSLQPEDFATYYCQQAKSFPITFGQGTRLEIK
notes: Variable regions were cloned into a vector with the human IgG constant region; also called 5D9-IgG1

binding result [1]: binds
binding result [2]: binds
binding result [3]: binds
B3: anti-IL2RA antibody 14C2 (antibody, V domains shown)
VH: QVQLVQSGGGVVQPGRSLRLSCAASGFTFSTYGMHWVRQAPGKGLEWVAVISYDGSDKIYADSVKGRFTISRDNSKNTLFLQMNSLRAEDTAVYYCATGPMENYYYYNMDVWGLGTTVTVSS
VL: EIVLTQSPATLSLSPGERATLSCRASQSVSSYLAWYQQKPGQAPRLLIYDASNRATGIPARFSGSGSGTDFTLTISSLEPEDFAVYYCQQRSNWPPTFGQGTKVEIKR

binding result [1]: binds
binding result [2]: binds
binding result [3]: binds
B4: anti-IL2RA antibody 11D2 (antibody, V domains shown)
VH: QVQLVQSGGGVVQPGRSLRLSCAASGFTFTNYAIHWVRQAPGKGLEWVAVIWSDGDNKYYADSVKGRFTISRDNSKNTLYLQMNSLRAEDTAVYYCARTPWYCTSTNCYTGYYYYGMDVWGQGTTVTVSS
VL: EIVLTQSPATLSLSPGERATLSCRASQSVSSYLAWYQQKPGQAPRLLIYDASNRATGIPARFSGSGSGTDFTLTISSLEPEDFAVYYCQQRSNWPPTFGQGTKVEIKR

binding result [1]: binds
binding result [2]: binds
binding result [3]: binds
B6: anti-IL2RA antibody 7B5 (antibody, V domains shown)
VH: EVQLQQWGAGLLKPSETLSLTCAVYGGSFSGYYWNWIRQPPGKGLEWIGESDHSGSTHFNPSLKSRVTISLDTSKNQFSLKLNSVTAADTAVYFCARAPDYGDFDHWGQGILVTVSS
VL: DIQMTQSPDSLAVSLGERATINCRSSQSVLHSSTNKRYLAWYQQKPRQPPKLLIYWTSTRESGVPDRFSGSGSGTDFTLTISSLQAEDVAVYFCQQYYSTPYTFGQGTKLEIK

Continued, binder first:

B2: anti-IL2RA antibody 11C12 (antibody, V domains shown)
VH: QVQLVQSGGGLVQPGGSLRLSCSASGLTFSSYGMHWVRQAPGKGLDYVSGITNNGGRTEYADSVKGRFTISRDNSKNTLYLQMSSLRTEDTAVYYCVKEDWNGQYYYYAMDVWGQGTTVTVSS
VL: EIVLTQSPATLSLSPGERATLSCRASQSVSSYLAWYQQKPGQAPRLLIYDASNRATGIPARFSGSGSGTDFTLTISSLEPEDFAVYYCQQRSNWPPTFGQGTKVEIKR
binding result [1]: binds
binding result [2]: binds
binding result [3]: binds

B5: anti-IL2RA antibody 11C3 (antibody, V domains shown)
VH: QVQLVQSGAEVKKPGASVKVSCKASGYTFNSYYIHWVRQAPGQGLEWLGIINPTGGRTIYAQKFQGRVTMTRDTSTTTVDMELSSLRSEDTAVYYCARVPGYCKDTSCQDFYYYYGMDVWGQGSTVTVSS
VL: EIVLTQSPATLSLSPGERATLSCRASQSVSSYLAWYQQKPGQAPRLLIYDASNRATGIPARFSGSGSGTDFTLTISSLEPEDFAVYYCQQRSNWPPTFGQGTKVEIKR
binding result [1]: binds
binding result [2]: binds
binding result [3]: binds

B7: anti-IL2RA antibody 13F9 (antibody, V domains shown)
VH: QVQLVQSGAEVKRPGASVKVSCKASGYTFTTYAIHWVRQAPGQRLEWMGWINADNGYTKYSQNFQGRVTITRDTSASTAYMDLSTLRSEDTALYYCARTPRYCTSTSCSTGYYYYGMDVWGQGTTVTVSS
VL: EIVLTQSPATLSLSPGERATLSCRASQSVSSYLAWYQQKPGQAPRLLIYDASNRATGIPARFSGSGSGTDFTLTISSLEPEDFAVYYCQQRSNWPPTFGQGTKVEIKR
binding result [1]: binds
binding result [2]: binds
binding result [3]: binds
